± gives the standard deviation of the averaged measurements.
System: Saccharomyces cerevisiae
Experiment: protein stability index of tFT-peptide fusion (C-terminal peptide) (PSI (0-1 scale)); higher = more stable (slower turnover)
Details: temperature: 30 C
Protocol: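 MPS profiling in S. cerevisiae of the yeast C-terminome library: the last 12 aa of each annotated ORF are fused to the C-terminus of a sfGFP-mCherry timer, after a GGGS linker. Cells are FACS-sorted into 8 mCherry/sfGFP bins and deep-sequenced. PSI runs from 0 (unstable) to 1 (stable); wild type and das1Δ backgrounds, two technical replicates each.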

[1] = genetic background: das1 deletion

Sequence | protein stability index [1] | protein stability index (genetic background: wild type)
LKSGEKESNASK [SDC1 C-terminal 12 aa] | 0.678 ± 0.0026 | 0.652 ± 0.013
LLCFRPTRGCGP [YCL041C C-terminal 12 aa] | 0.7091 ± 0.0046 | 0.687 ± 0.013
LLDAIELYQRHK [HEM4 C-terminal 12 aa] | 0.698 ± 0.017 | 0.6704 ± 0.0026
LLEDLRSRIDLD [MLO50 C-terminal 12 aa] | 0.685 ± 0.048 | 0.744 ± 0.087
LLHTVMNENKLP [LST7 C-terminal 12 aa] | 0.716 ± 0.03 | 0.687 ± 0.054
LLILLVLFSKFK [VTI1 C-terminal 12 aa] | 0.295 ± 0.02 | 0.302 ± 0.0073
LMESEREARRLR [RPS28A C-terminal 12 aa] | 0.708 ± 0.01 | 0.6762 ± 0.0022
LMKLFKSSKFSK [GEM1 C-terminal 12 aa] | 0.724 ± 0.024 | 0.694 ± 0.077
LMVPDPWYREGN [FAB1 C-terminal 12 aa] | 0.726 ± 0.018 | 0.721 ± 0.031
LNDLSNVRHSKT [HER1 C-terminal 12 aa] | 0.6893 ± 0.0035 | 0.675 ± 0.022
LNNLSMERSIRL [GIP3 C-terminal 12 aa] | 0.715 ± 0.015 | 0.666 ± 0.014
LNRKWYTRFFFP [MNN10 C-terminal 12 aa] | 0.732 ± 0.012 | 0.702 ± 0.035
LPIWDPMGALAK [LAP3 C-terminal 12 aa] | 0.703 ± 0.0072 | 0.739 ± 0.06
LPKPAGWQNHIG [KTR1 C-terminal 12 aa] | 0.7014 ± 0.0053 | 0.68 ± 0.009
LPNTISSETFLK [SCEI C-terminal 12 aa] | 0.661 ± 0.0076 | 0.702 ± 0.018
LPQSTLQENQLS [SKN7 C-terminal 12 aa] | 0.706 ± 0.024 | 0.622 ± 0.028
LQVSQEFTTKTQ [NUP82 C-terminal 12 aa] | 0.676 ± 0.034 | 0.709 ± 0.048
LRIVACNSKKSE [TOA2 C-terminal 12 aa] | 0.673 ± 0.027 | 0.649 ± 0.022
LRSCDLKRKSKK [YLR302C C-terminal 12 aa] | 0.678 ± 0.037 | 0.68 ± 0.028
LSDLHIKEAKID [OGG1 C-terminal 12 aa] | 0.7101 ± 0.0056 | 0.568 ± 0.021
LSDLRAWTLKVA [YDR491C C-terminal 12 aa] | 0.7058 ± 0.0027 | 0.329 ± 0.0064

Sequence | protein stability index [1] | protein stability index (genetic background: wild type)
LSDYLSHDFASC [YNL040W C-terminal 12 aa] | 0.688 ± 0.011 | 0.694 ± 0.04
LSFFGILKYCFL [TSC3 C-terminal 12 aa] | 0.6491 ± 0.0031 | 0.618 ± 0.027
LSIAAGVGFALV [GAS1 C-terminal 12 aa] | 0.657 ± 0.007 | 0.653 ± 0.0083
LSKKTSGTHTTH [YBR182C-A C-terminal 12 aa] | 0.681 ± 0.015 | 0.6949 ± 0.005
LSQRAWATKKPI [YJL028W C-terminal 12 aa] | 0.696 ± 0.012 | 0.732 ± 0.077
LSRYTRVLLMFM [YBR178W C-terminal 12 aa] | 0.632 ± 0.02 | 0.455 ± 0.014
LSSVKVRQLRNM [RBH2 C-terminal 12 aa] | 0.681 ± 0.021 | 0.205 ± 0.0043
LSTWDARTPILD [GPI2 C-terminal 12 aa] | 0.705 ± 0.0016 | 0.703 ± 0.0087
LTALLETVNKYR [GCG1 C-terminal 12 aa] | 0.7 ± 0.016 | 0.682 ± 0.014
LTTISLYLMLKL [YGL262W C-terminal 12 aa] | 0.382 ± 0.021 | 0.351 ± 0.0079
LVAIDPRSEAYC [YMR324C C-terminal 12 aa] | 0.68838 ± 0.00058 | 0.671 ± 0.012
LVKHTYKRSSSS [VBA1 C-terminal 12 aa] | 0.705 ± 0.029 | 0.656 ± 0.019
LVSNSDTNIVWP [YMR247W-A C-terminal 12 aa] | 0.68696 ± 0.00059 | 0.712 ± 0.015
LVSQRITGPGVF [ASI2 C-terminal 12 aa] | 0.687 ± 0.0099 | 0.681 ± 0.0099
LWVTLLPEFTNF [YBR121C-A C-terminal 12 aa] | 0.768 ± 0.018 | 0.75 ± 0.029
LYFLVKSFLSIV [HMX1 C-terminal 12 aa] | 0.668 ± 0.14 | 0.282 ± 0.12
MEDEDMVDVIID [ESC2 C-terminal 12 aa] | 0.689 ± 0.02 | 0.7232 ± 0.0017
MGVVAAVGVALL [ECM33 C-terminal 12 aa] | 0.678 ± 0.019 | 0.642 ± 0.0081
MHSNFQNLFNLK [CLB5 C-terminal 12 aa] | 0.708 ± 0.026 | 0.707 ± 0.026
MKSKKIDIKGQK [THP3 C-terminal 12 aa] | 0.705 ± 0.03 | 0.665 ± 0.018

From the supplement of paper PMC10724198
